Source: paper PMC11480449, “Adaptive laboratory evolution recruits the promiscuity of succinate semialdehyde dehydrogenase to repair different metabolic deficiencies” (Nature Communications, 2024)

Experiments:
[1] = target: T1, ThrA (bifunctional aspartokinase (AK)/homoserine dehydrogenase (HDH) 1) (Escherichia coli, UniProt P00561); experiment: aspartate kinase, PK/LDH-coupled, NADH at […] nm; format: biochemical; conditions: 4 mM ATP, 5 mM L-aspartate, 5 mM MgCl2, pH 8.0, 37 °C
T1 sequence (P00561 1-820): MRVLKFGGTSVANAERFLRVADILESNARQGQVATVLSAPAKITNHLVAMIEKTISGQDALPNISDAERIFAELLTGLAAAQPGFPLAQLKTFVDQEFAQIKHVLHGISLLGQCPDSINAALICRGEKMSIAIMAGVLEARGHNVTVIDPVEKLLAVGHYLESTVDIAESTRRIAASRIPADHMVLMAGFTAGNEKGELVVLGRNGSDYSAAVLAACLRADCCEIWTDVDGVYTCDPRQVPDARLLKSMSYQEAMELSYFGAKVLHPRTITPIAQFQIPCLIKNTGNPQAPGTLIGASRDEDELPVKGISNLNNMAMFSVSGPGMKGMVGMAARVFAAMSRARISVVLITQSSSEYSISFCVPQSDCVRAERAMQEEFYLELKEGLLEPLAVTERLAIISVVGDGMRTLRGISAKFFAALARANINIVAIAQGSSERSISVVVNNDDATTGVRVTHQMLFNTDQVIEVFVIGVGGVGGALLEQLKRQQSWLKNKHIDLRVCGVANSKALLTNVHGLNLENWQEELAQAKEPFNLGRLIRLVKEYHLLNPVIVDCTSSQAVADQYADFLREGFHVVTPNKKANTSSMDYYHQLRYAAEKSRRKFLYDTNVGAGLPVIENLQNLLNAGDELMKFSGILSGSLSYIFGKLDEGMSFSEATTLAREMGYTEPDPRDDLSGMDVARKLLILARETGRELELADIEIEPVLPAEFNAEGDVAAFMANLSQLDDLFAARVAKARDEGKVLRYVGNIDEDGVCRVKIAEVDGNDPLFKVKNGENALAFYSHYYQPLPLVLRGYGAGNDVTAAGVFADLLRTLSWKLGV

[2] = target: T2, Sad (NAD(P)+-dependent succinate semialdehyde dehydrogenase, SSADH) (Escherichia coli, UniProt P76149); experiment: NADH formation at […] nm, substrate-inhibition fit; format: biochemical; conditions: 1 mM NAD+, 75 mM HEPES pH 8.0, 37 °C
T2 construct: dimeric on size exclusion

[3] = target: T2, Sad (NAD(P)+-dependent succinate semialdehyde dehydrogenase, SSADH); experiment: X-ray crystallography; format: binding
[4] = target: T3, Sad (NAD(P)+-dependent succinate semialdehyde dehydrogenase, SSADH) (Escherichia coli, UniProt P76149, Q262R); experiment: NADH formation at […] nm, substrate-inhibition fit; format: biochemical; conditions: 1 mM NAD+, 75 mM HEPES pH 8.0, 37 °C
T3 construct: dimeric on size exclusion

[5] = target: T3, Sad (NAD(P)+-dependent succinate semialdehyde dehydrogenase, SSADH); experiment: X-ray crystallography; format: binding; conditions: 5 mM NAD+, 1 mM TCEP
[6] = target: T1, ThrA (bifunctional aspartokinase (AK)/homoserine dehydrogenase (HDH) 1); experiment: homoserine dehydrogenase, NADPH consumption at […] nm; format: biochemical; conditions: 0.2 mM NADPH, 1 mM substrate, 100 mM KCl, pH 8.0, 37 °C
[7] = substrate: O=C[C@H](O)[C@H](O)COP(=O)(O)O; experiment: purified protein; format: biochemical, Escherichia coli; conditions: 1 mM NAD+, 75 mM HEPES pH 8.0, 37 °C
[8] = substrate: O=CCCC(=O)O; experiment: purified protein; format: biochemical, Escherichia coli; conditions: 75 mM HEPES pH 8.0, 37 °C
[9] = substrate: O=C[C@H](O)COP(=O)(O)O; experiment: purified protein; format: biochemical, Escherichia coli; conditions: 1 mM NAD+, 75 mM HEPES pH 8.0, 37 °C
[10] = target: the molecule itself; experiment: SEC; HiLoad 16/600 Superdex 200 pg, 20 mM HEPES-KOH, 50 mM KCl, pH 7.5; preparative step after affinity purification, before crystallisation

With `N[C@@H](CC(=O)O)C(=O)O` [L-aspartate] the “aspartate kinase, PK/LDH-coupled, NADH at 340 nm” value [1] was “Aspartate kinase activities of ThrA variants were determined”.

In the case of `O=CCCC(=O)O` [succinate semialdehyde], the “App. Ki” value [2] is reported as 300 ± 100 µM, the X-ray crystallography ([3]; covalent, bound to C268, NAD+ present, crystal soaked with 5 mM SSA) is reported as “the latter is covalently bound to C268” and the “App. Ki” value [4] is reported as 500 ± 100 µM.

In the case of `NC(=O)c1ccc[n+]([C@@H]2O[C@H](COP(=O)(O)OP(=O)(O)OC[C@H]3O[C@@H](n4cnc5c(N)ncnc54)[C@H](O)[C@@H]3O)[C@@H](O)[C@H]2O)c1` [NAD^+], the X-ray crystallography ([3]; 5 mM NAD+) is reported as “crystal structures of both Sad WT and Q262R variants with bound NAD^+” and the X-ray crystallography [5] is reported as “crystal structures of both Sad WT and Q262R variants with bound NAD^+”.

`N[C@@H](CC=O)C(=O)O` [L-aspartic 4-semialdehyde] was tested, and the “homoserine dehydrogenase, NADPH consumption at 340 nm” value [6] was “Homoserine dehydrogenase activities of ThrA variants were determined”.

For `O=C[C@H](O)COP(=O)(O)O` [glyceraldehyde 3-phosphate], the “App. Ki” value [4] was 1400 ± 300 µM.

In the case of `O=C[C@H](O)[C@H](O)COP(=O)(O)O` [erythrose 4-phosphate], the “App. Ki” value [4] is reported as 7400 ± 3300 µM.

B1: Sad (NAD(P)+-dependent succinate semialdehyde dehydrogenase, SSADH) (Escherichia coli K-12) (protein)
chain: MTITPATHAISINPATGEQLSVLPWAGADDIENALQLAAAGFRDWRETNIDYRAEKLRDIGKALRARSEEMAQMITREMGKPINQARAEVAKSANLCDWYAEHGPAMLKAEPTLVENQQAVIEYRPLGTILAIMPWNFPLWQVMRGAVPIILAGNGYLLKHAPNVMGCAQLIAQVFKDAGIPQGVYGWLNADNDGVSQMIKDSRIAAVTVTGSVRAGAAIGAQAGAALKKCVLELGGSDPFIVLNDADLELAVKAAVAGRYQNTGQVCAAAKRFIIEEGIASAFTERFVAAAAALKMGDPRDEENALGPMARFDLRDELHHQVEKTLAQGARLLLGGEKMAGAGNYYPPTVLANVTPEMTAFREEMFGPVAAITIAKDAEHALELANDSEFGLSATIFTTDETQARQMAARLECGGVFINGYCASDARVAFGGVKKSGFGRELSHFGLHEFCNIQTVWKDRI
notes: dimeric on size exclusion
With B1 the Km [7] was 2,102 ± 328 μM, the kcat [7] was 1.1 ± 0.1 s⁻¹ and the kcat/Km [7] was 530 M⁻¹ s⁻¹. For the same molecule, the Km ([8]; 1 mM NAD+) was 11 ± 1 µM, the kcat ([8]; 1 mM NAD+) was 85 ± 3 s⁻¹ and the kcat/Km ([8]; 1 mM NAD+) was 7.4e+06 M⁻¹ s⁻¹. The Km [9] was 1,106 ± 92 μM, the kcat [9] was 3.1 ± 0.2 s⁻¹ and the kcat/Km [9] was 2800 M⁻¹ s⁻¹.

B2: Sad (NAD(P)+-dependent succinate semialdehyde dehydrogenase, SSADH) (Escherichia coli K-12; Q262R) (protein)
chain: MTITPATHAISINPATGEQLSVLPWAGADDIENALQLAAAGFRDWRETNIDYRAEKLRDIGKALRARSEEMAQMITREMGKPINQARAEVAKSANLCDWYAEHGPAMLKAEPTLVENQQAVIEYRPLGTILAIMPWNFPLWQVMRGAVPIILAGNGYLLKHAPNVMGCAQLIAQVFKDAGIPQGVYGWLNADNDGVSQMIKDSRIAAVTVTGSVRAGAAIGAQAGAALKKCVLELGGSDPFIVLNDADLELAVKAAVAGRYRNTGQVCAAAKRFIIEEGIASAFTERFVAAAAALKMGDPRDEENALGPMARFDLRDELHHQVEKTLAQGARLLLGGEKMAGAGNYYPPTVLANVTPEMTAFREEMFGPVAAITIAKDAEHALELANDSEFGLSATIFTTDETQARQMAARLECGGVFINGYCASDARVAFGGVKKSGFGRELSHFGLHEFCNIQTVWKDRI
notes: dimeric on size exclusion
B2 gave a Km [7] of 28 ± 4 µM, a kcat [7] of 3 ± 0.1 s⁻¹ and a kcat/Km [7] of 110000 M⁻¹ s⁻¹. The Km ([8]; 1 mM NAD+) was 5 ± 1 µM, the kcat ([8]; 1 mM NAD+) was 87 ± 4 s⁻¹ and the kcat/Km ([8]; 1 mM NAD+) was 1.9e+07 M⁻¹ s⁻¹. It also gave a Km [9] of 67 ± 9 µM, a kcat [9] of 19 ± 1 s⁻¹ and a kcat/Km [9] of 280000 M⁻¹ s⁻¹.

B3: Succinate semialdehyde dehydrogenase Sad, Q262R variant (enzyme, Escherichia coli)
chain: MTITPATHAISINPATGEQLSVLPWAGADDIENALQLAAAGFRDWRETNIDYRAEKLRDIGKALRARSEEMAQMITREMGKPINQARAEVAKSANLCDWYAEHGPAMLKAEPTLVENQQAVIEYRPLGTILAIMPWNFPLWQVMRGAVPIILAGNGYLLKHAPNVMGCAQLIAQVFKDAGIPQGVYGWLNADNDGVSQMIKDSRIAAVTVTGSVRAGAAIGAQAGAALKKCVLELGGSDPFIVLNDADLELAVKAAVAGRYRNTGQVCAAAKRFIIEEGIASAFTERFVAAAAALKMGDPRDEENALGPMARFDLRDELHHQVEKTLAQGARLLLGGEKMAGAGNYYPPTVLANVTPEMTAFREEMFGPVAAITIAKDAEHALELANDSEFGLSATIFTTDETQARQMAARLECGGVFINGYCASDARVAFGGVKKSGFGRELSHFGLHEFCNIQTVWKDRI
notes: Succinate semialdehyde dehydrogenase Sad, E. coli, with Q262R (arose in adaptive laboratory evolution); also called Q262R mutant; source: E. coli BL21(DE3), purified (HisTrap, Superdex 200)
B3: binds [10].

B4: NAD(P)+-dependent succinate semialdehyde dehydrogenase of Escherichia coli (Sad), wild type (enzyme)
chain: MTITPATHAISINPATGEQLSVLPWAGADDIENALQLAAAGFRDWRETNIDYRAEKLRDIGKALRARSEEMAQMITREMGKPINQARAEVAKSANLCDWYAEHGPAMLKAEPTLVENQQAVIEYRPLGTILAIMPWNFPLWQVMRGAVPIILAGNGYLLKHAPNVMGCAQLIAQVFKDAGIPQGVYGWLNADNDGVSQMIKDSRIAAVTVTGSVRAGAAIGAQAGAALKKCVLELGGSDPFIVLNDADLELAVKAAVAGRYQNTGQVCAAAKRFIIEEGIASAFTERFVAAAAALKMGDPRDEENALGPMARFDLRDELHHQVEKTLAQGARLLLGGEKMAGAGNYYPPTVLANVTPEMTAFREEMFGPVAAITIAKDAEHALELANDSEFGLSATIFTTDETQARQMAARLECGGVFINGYCASDARVAFGGVKKSGFGRELSHFGLHEFCNIQTVWKDRI
notes: Succinate semialdehyde dehydrogenase Sad, E. coli; also called Sad WT; SSADH; source: E. coli BL21(DE3), purified (HisTrap, Superdex 200)
B4: binds [10].

B5: GabD (NADP+-dependent SSADH) (Escherichia coli K-12) (protein)
chain: MKLNDSNLFRQQALINGEWLDANNGEAIDVTNPANGDKLGSVPKMGADETRAAIDAANRALPAWRALTAKERATILRNWFNLMMEHQDDLARLMTLEQGKPLAEAKGEISYAASFIEWFAEEGKRIYGDTIPGHQADKRLIVIKQPIGVTAAITPWNFPAAMITRKAGPALAAGCTMVLKPASQTPFSALALAELAIRAGVPAGVFNVVTGSAGAVGNELTSNPLVRKLSFTGSTEIGRQLMEQCAKDIKKVSLELGGNAPFIVFDDADLDKAVEGALASKFRNAGQTCVCANRLYVQDGVYDRFAEKLQQAVSKLHIGDGLDNGVTIGPLIDEKAVAKVEEHIADALEKGARVVCGGKAHERGGNFFQPTILVDVPANAKVSKEETFGPLAPLFRFKDEADVIAQANDTEFGLAAYFYARDLSRVFRVGEALEYGIVGINTGIISNEVAPFGGIKASGLGREGSKYGIEDYLEIKYMCIGL
In the case of B5, the Km ([8]; 1 mM NADP+) is reported as 13 ± 1 µM, the kcat ([8]; 1 mM NADP+) is reported as 132 ± 2 s⁻¹ and the kcat/Km ([8]; 1 mM NADP+) is reported as 1e+07 M⁻¹ s⁻¹.
